Laboratory results taken from patent US20190321478A1 (IMMATICS BIOTECHNOLOGIES, published 2019).

Molecular target: HLA-A*02-presented MAGEA1-003 (on target cells) (human)
Test: cell-based or functional assay

Binder	EC50 of IFNγ release, T2 cells loaded with titrated MAGEA1-003 peptide [nM]
TCR R26P1A9 (TCR, V domains shown) V domain 1: SQQGEEDPQALSIQEGENATMNCSYKTSINNLQWYRQNSGRGLVHLILIRSNEREKHSGRLRVTLDTSKKSSSLLITASRAADTASYFCLIGASGSRLTFGEGTQLTVNP V domain 2: DAGVIQSPRHEVTEMGQEVTLRCKPISGHDYLFWYRQTMMRGLELLIYFNNNVPIDDSGMPEDRFSAKMPNASFSTLKIQPSEPRDSAVYFCASSYFGWNEKLFFGSGTQLSVLE	6
TCR R26P2A6 (TCR, V domains shown) V domain 1: QKEVEQDPGPLSVPEGAIVSLNCTYSNSAFQYFMWYRQYSRKGPELLMYTYSSGNKEDGRFTAQVDKSSKYISLFIRDSQPSDSATYLCAMSDVSGGYNKLIFGAGTRLAVHP V domain 2: EAQVTQNPRYLITVTGKKLTVTCSQNMNHEYMSWYRQDPGLGLRQIYYSMNVEVTDKGDVPEGYKVSRKEKRNFPLILESPSPNQTSLYFCASTTPDGTDEQFFGPGTRLTVLE	100
TCR R37P1H1 (TCR, V domains shown) V domain 1: AQTVTQSQPEMSVQEAETVTLSCTYDTSESNYYLFWYKQPPSRQMILVIRQEAYKQQNATENRFSVNFQKAAKSFSLKISDSQLGDTAMYFCAFGYSGGGADGLTFGKGTHLIIQP V domain 2: DAGVTQSPTHLIKTRGQQVTLRCSPKSGHDTVSWYQQALGQGPQFIFQYYEEEERQRGNFPDRFSGHQFPNYSSELNVNALLLGDSALYLCASSNEGQGWEAEAFFGQGTRLTVVE	26

Further lines, results first:

EC50 of IFNγ release, T2 cells loaded with titrated MAGEA1-003 peptide [nM]	Binder
386	TCR R59P2E7 (TCR, V domains shown) V domain 1: KQEVTQIPAALSVPEGENLVLNCSFTDSAIYNLQWFRQDPGKGLTSLLLIQSSQREQTSGRLNASLDKSSGRSTLYIAASQPGDSATYLCAVNSDYKLSFGAGTTVTVRA V domain 2: AAGVIQSPRHLIKEKRETATLKCYPIPRHDTVYWYQQGPGQDPQFLISFYEKMQSDKGSIPDRFSAQQFSDYHSELNMSSLELGDSALYFCASSLGLGTGDYGYTFGSGTRLTVVE
823	TCR R42P3A9 (TCR, V domains shown) V domain 1: GIQVEQSPPDLILQEGANSTLRCNFSDSVNNLQWFHQNPWGQLINLFYIPSGTKQNGRLSATTVATERYSLLYISSSQTTDSGVYFCAVHNFNKFYFGSGTKLNVKP V domain 2: AAGVIQSPRHLIKEKRETATLKCYPIPRHDTVYWYQQGPGQDPQFLISFYEKMQSDKGSIPDRFSAQQFSDYHSELNMSSLELGDSALYFCASSLLGQGYNEQFFGPGTRLTVLE
